# Test results from PMC5123381.
# Molecular target: T1, CD11a (human (endogenous in NK92-CD16)) (UniProt P20701)
# T1 sequence: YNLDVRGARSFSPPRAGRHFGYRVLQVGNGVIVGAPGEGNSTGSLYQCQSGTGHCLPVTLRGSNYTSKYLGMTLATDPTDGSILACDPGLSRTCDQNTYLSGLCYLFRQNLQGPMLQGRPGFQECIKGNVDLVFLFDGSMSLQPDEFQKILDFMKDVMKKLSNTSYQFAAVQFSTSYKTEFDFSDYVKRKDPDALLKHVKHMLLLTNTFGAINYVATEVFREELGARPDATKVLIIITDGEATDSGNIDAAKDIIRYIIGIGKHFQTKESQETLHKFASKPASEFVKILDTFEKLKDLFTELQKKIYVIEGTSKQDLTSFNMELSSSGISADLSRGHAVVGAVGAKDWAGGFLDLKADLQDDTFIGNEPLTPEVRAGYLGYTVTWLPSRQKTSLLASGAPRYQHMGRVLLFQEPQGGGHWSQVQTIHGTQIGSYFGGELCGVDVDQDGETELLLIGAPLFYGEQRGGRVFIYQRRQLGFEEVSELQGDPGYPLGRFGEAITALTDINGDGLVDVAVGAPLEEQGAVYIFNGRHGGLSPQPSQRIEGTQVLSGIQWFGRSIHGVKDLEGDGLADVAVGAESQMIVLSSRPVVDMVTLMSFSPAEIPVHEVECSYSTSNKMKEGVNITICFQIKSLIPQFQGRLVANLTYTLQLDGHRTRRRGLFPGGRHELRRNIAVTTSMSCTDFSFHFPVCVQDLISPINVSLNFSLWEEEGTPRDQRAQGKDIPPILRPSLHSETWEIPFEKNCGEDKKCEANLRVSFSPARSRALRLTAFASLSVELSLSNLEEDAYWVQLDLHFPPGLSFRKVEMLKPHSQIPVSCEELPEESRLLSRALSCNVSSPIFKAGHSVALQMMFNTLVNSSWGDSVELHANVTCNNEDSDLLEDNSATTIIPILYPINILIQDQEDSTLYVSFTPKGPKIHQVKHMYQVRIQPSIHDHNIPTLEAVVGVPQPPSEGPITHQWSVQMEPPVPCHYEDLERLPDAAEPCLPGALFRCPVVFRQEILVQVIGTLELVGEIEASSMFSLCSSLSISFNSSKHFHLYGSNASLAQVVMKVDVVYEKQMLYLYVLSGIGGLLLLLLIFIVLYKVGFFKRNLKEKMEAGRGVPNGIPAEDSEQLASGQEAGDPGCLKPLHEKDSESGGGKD
# Chain of ICAM-1 (P05362 28-532): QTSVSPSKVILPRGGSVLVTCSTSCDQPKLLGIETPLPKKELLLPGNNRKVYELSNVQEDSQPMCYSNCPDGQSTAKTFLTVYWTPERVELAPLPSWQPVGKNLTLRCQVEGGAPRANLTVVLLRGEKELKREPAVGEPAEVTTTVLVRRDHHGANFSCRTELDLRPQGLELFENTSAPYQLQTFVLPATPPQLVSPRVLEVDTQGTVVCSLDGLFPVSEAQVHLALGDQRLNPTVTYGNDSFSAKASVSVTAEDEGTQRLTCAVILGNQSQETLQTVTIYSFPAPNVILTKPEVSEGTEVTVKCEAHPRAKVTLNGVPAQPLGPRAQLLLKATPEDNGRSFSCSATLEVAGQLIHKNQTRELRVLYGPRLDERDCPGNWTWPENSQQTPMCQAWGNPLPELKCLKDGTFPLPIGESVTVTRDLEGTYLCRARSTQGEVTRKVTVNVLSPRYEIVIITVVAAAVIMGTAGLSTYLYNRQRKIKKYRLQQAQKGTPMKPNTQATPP
substance,measurement,value
ICAM-1 (from UniProt P05362 28-532) (ligand),cytotoxicity of NK92-CD16 cells against NSCLC cells (51chromium-release assay) with the ICAM1-CD11a interaction blocked,10%
